1 protein from article PMC2837359 (Journal of molecular biology, 2009) can be followed below.

The data set deals with the molecule itself. Description: single particle electron microscopy.

B1: galactose permease (GalP), H+/galactose symporter from E. coli, His6-tagged (natural protein, UniProt P0AEP1 1-464, looked up)
chain: MPDAKKQGRSNKAMTFFVCFLAALAGLLFGLDIGVIAGALPFIADEFQITSHTQEWVVSSMMFGAAVGAVGSGWLSFKLGRKKSLMIGAILFVAGSLFSAAAPNVEVLILSRVLLGLAVGVASYTAPLYLSEIAPEKIRGSMISMYQLMITIGILGAYLSDTAFSYTGAWRWMLGVIIIPAILLLIGVFFLPDSPRWFAAKRRFVDAERVLLRLRDTSAEAKRELDEIRESLQVKQSGWALFKENSNFRRAVFLGVLLQVMQQFTGMNVIMYYAPKIFELAGYTNTTEQMWGTVIVGLTNVLATFIAIGLVDRWGRKPTLTLGFLVMAAGMGVLGTMMHIGIHSPSAQYFAIAMLLMFIVGFAMSAGPLIWVLCSEIQPLKGRDFGITCSTATNWIANMIVGATFLTMLNTLGNANTFWVYAALNVLFILLTLWLVPETKHVSLEHIERNLMKGRKLREIGAHD
By stoichiometry N is commonly meant a count of units in the complex or per binding partner. Consider B1, for which the “stoichiometry N” value stood at 3.
